These results are taken from US20160200813A1.

Assay [1] deals with Cynomolgus monkey LRP-8 expressed on HEK293 cells (cynomolgus monkey). Briefly: FACS, cyno LRP8 cells. For orientation: Flow cytometry measures light scatter and fluorescence of single cells or particles in a stream.
Assay [2] concerns the target Mouse LRP-8 expressed on HEK293 cells (mouse) (UniProt Q924X6). Briefly: FACS, mouse LRP8 cells.
The target of assay [3] is CR1 cyclic peptide of human LRP-8 (human). The experiment in a line: ELISA using CR1 peptide. Background: An ELISA detects its analyte on a solid surface through an enzyme-linked reagent.

Turning to “Negative IgG control (Table 20) (antibody)”, the values for the FACS (ratio +/-) in assay [1] and in assay [2] were 0.8 and 1, respectively. Also, in assay [3], the OD450 amounted to 0.08 OD450.
